Laboratory results taken from publication PMC4338599.

Key:
Test in all cases: SPR
[1] = molecular target: Ku70-Ku80 heterodimer (Ku) (UniProt P12956+P13010)
[2] = molecular target: Ku70-Ku80 heterodimer (Ku);PAXX V199A/F201A V199A;F201A (human?;human) (UniProt P12956+P13010+Q9BUH6)
[3] = molecular target: Ku70-Ku80 heterodimer (Ku);PAXX WT (PAXX1-204, C9orf142) (human?;human) (UniProt P12956+P13010+Q9BUH6)
Sequence of Ku70-Ku80 heterodimer (Ku);PAXX WT (PAXX1-204, C9orf142) (human?;human) (P12956 whole entry, chain 1 of 3): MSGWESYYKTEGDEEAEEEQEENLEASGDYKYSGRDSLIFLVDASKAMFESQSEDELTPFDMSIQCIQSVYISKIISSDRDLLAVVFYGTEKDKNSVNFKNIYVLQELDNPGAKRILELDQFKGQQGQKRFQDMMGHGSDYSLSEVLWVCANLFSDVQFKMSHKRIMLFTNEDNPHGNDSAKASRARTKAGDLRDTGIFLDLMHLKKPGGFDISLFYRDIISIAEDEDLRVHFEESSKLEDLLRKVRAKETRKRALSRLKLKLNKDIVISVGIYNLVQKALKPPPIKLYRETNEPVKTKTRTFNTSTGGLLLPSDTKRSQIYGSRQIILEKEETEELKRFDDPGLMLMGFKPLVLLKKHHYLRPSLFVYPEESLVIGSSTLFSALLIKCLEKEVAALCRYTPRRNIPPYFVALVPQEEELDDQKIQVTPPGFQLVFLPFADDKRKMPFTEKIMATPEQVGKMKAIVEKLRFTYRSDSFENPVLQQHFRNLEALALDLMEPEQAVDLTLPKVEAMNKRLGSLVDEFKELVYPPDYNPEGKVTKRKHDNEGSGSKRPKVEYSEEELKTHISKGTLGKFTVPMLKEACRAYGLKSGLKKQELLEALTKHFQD
Sequence of Ku70-Ku80 heterodimer (Ku);PAXX WT (PAXX1-204, C9orf142) (human?;human) (P13010 whole entry, chain 2 of 3): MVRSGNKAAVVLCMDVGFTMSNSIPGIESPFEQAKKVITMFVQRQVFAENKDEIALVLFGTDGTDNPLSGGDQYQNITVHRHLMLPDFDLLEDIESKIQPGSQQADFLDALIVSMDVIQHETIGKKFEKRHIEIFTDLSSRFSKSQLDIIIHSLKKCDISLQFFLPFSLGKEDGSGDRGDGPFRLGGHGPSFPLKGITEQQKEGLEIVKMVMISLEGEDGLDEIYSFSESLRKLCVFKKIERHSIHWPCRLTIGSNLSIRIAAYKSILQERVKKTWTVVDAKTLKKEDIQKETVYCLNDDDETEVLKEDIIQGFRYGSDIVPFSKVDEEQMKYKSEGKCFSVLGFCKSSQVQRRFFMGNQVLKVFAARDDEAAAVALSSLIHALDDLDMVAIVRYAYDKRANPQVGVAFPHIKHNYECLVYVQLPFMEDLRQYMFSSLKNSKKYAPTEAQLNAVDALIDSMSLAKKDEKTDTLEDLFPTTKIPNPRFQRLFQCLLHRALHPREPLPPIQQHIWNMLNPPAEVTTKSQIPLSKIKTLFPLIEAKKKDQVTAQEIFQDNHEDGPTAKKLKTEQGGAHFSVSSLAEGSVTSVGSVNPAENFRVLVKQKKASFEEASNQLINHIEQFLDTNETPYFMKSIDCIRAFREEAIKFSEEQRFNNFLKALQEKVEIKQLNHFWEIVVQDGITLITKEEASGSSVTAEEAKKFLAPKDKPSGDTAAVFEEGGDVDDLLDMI
Sequence of Ku70-Ku80 heterodimer (Ku);PAXX WT (PAXX1-204, C9orf142) (human?;human) (Q9BUH6 whole entry, chain 3 of 3): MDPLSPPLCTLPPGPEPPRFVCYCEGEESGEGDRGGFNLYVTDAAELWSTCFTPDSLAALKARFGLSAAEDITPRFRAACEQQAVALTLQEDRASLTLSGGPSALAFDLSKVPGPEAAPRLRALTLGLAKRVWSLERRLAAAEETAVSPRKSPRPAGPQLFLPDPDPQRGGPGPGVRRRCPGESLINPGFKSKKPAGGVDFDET

Sequence of Ku70-Ku80 heterodimer (Ku) (P12956 whole entry, chain 1 of 2): as the sequence (P12956 whole entry, chain 1 of 3) above
Sequence of Ku70-Ku80 heterodimer (Ku) (P13010 whole entry, chain 2 of 2): as the sequence (P13010 whole entry, chain 2 of 3) above
Sequence of Ku70-Ku80 heterodimer (Ku);PAXX V199A/F201A V199A;F201A (human?;human) (P12956 whole entry, chain 1 of 3): as the sequence (P12956 whole entry, chain 1 of 3) above
Sequence of Ku70-Ku80 heterodimer (Ku);PAXX V199A/F201A V199A;F201A (human?;human) (P13010 whole entry, chain 2 of 3): as the sequence (P13010 whole entry, chain 2 of 3) above
Sequence of Ku70-Ku80 heterodimer (Ku);PAXX V199A/F201A V199A;F201A (human?;human) (Q9BUH6 whole entry V199A/F201A, chain 3 of 3): as the sequence (Q9BUH6 whole entry, chain 3 of 3) above, with V199A, F201A counted along it

Q: Which binding [1] does the source give for “ATATATCCATGGCTGCCTCACAAACTTCACAAACTGTTGCATCTCACGTTCCTTTTGCAGATTTGTGTTCAACTTTAGAACGAATACAGAAAAGTAAAGGACGTGCA (double strand) [107-bp biotinylated LIG4 PCR fragment]” here?
A: binds

Q: And the binding [2]?
A: no binding

Q: And the binding [3]?
A: binds
